# Assay results as given in patent publication US20260146107A1 (ALLIGATOR BIOSCIENCE, published 2026).
# T1: human CEACAM5, recombinant (R&D Systems #4128-CM-050) (human, UniProt P06731 35-685)
# T1 construct: Bought; coated in ELISA and used as monomeric analyte in Octet; also called hCEACAM-5; Human CEACAM5-His; not shown: His tag
# T1 sequence (looked up): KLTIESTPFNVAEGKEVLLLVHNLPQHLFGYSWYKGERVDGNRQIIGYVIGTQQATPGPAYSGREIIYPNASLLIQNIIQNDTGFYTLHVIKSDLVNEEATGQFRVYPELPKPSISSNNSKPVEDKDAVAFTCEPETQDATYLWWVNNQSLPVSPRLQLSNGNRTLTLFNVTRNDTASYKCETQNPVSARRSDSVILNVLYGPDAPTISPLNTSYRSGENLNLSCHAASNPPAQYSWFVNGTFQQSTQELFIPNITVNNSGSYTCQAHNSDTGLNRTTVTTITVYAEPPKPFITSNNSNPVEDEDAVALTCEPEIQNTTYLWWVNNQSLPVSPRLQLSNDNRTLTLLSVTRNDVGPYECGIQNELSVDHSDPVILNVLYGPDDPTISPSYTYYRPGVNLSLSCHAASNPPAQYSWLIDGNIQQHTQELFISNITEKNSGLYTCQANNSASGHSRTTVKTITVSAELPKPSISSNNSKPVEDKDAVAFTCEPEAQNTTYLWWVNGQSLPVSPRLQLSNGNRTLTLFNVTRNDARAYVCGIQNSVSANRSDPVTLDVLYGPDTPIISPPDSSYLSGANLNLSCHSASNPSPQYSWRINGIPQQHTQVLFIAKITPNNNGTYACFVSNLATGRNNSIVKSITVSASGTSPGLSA
# T2: CEACAM-8, recombinant (R&D Systems #9639-CM-050) (UniProt P31997 35-320)
# T2 sequence (looked up): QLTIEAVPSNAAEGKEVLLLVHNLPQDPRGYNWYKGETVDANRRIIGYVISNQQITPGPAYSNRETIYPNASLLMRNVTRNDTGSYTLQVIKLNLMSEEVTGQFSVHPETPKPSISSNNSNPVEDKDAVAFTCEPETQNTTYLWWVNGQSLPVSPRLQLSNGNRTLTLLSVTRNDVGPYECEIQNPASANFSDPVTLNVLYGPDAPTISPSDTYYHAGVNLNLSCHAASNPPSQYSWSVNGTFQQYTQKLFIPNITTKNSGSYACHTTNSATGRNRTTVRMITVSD
# T3: human CEACAM6, recombinant (R&D Systems #3934-CM-050) (human, UniProt P40199 35-320)
# T3 construct: also called hCEACAM-6
# T3 sequence (looked up): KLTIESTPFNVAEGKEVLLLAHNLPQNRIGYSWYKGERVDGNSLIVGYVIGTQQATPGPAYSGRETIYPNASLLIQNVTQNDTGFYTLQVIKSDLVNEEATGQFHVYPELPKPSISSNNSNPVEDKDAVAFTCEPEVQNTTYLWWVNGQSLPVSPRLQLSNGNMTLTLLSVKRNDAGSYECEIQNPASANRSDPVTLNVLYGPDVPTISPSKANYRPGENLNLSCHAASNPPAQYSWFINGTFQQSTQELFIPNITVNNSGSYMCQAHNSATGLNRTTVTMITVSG
# T4: biotinylated human CEACAM5-His (Acro Biosystems #CE5-H82E0) (human, UniProt P06731 35-685, biotinylated (site not stated))
# T4 construct: also called CEACAM5-biotin; captured human CEACAM5-biotin; not shown: His tag
# T4 sequence (looked up): T1 sequence (looked up)
# T5: human CEACAM5 expressed on cells (CHO-CEACAM5 transfectants; MKN45 and LS174T tumour cells) (human, UniProt P06731 35-685)
# T5 construct: whole, on cells; also called CEACAM5 on cells; hCEA
# T5 sequence (looked up): T1 sequence (looked up)
# T6: human CEACAM1 expressed on CHO cells (human, UniProt P13688 35-526)
# T6 construct: whole, on cells; also called CHO-CEACAM1; CEACAM1 on cells
# T6 sequence (looked up): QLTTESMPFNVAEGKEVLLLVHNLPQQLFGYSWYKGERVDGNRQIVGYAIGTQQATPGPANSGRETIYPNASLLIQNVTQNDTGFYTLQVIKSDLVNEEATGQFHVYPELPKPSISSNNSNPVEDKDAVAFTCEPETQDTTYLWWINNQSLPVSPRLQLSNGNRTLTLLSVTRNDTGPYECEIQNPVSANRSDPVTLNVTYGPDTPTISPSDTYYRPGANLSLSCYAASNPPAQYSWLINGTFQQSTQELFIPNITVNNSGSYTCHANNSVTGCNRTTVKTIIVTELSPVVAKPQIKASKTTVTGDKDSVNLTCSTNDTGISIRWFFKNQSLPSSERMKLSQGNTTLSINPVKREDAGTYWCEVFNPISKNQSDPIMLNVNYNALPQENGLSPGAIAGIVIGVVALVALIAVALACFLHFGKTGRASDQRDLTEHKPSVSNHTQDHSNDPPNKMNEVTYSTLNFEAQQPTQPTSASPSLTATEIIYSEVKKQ
# B1: Multi41 (bispecific antibody)
# heavy 1: not shown
# light: DIQMTQSPSSLSASVGDRVTITCRASQSISSYLNWYQEKPGKAPKLLIYAASSLQSGVPSRFSGSGSGTDFTLTISSLQPEDFATYYCQQWRSHLFTFGQGTKLEIKRTVAAPSVFIFPPSDEQLKSGTASVVCYLNNFYPREAKVQWKVDNALQSGNSQESVTEQDSKDSTYSLWSTLTLSKADYEKHKVYACEVTHQGLSSPVTKSFNRGEC
# heavy 2: EVQLLESGGGLVQPGGSLRLSCAASGFTFSTYGMHWVREAPGKGLEWLSYISGGSSYIFYADSVKGRFTISRDNSKNTLYLQMNSLRAEDTAVYYCARILRGGSGMDLWGQGTLVTVSSASTKGPSVFPLAPSSKSTSGGTAALGCLVKDYFPEPVTVSWNSGALTSGVHTFPAVLQSSGLYSLTSVVEVPSSSLGTQTYICNVNHKPSNTKVDKKVEPKSC
# notes: Optimised RUBY format, CEACAM5xCD40; copies: 2 + 2 + 2
# Experiments:
# [1] = molecular target: T1, human CEACAM5, recombinant (R&D Systems …); assay: dual-target ELISA: hCEACAM-5 coated, bsAb titrated, detected with biotinylated hCD40-muIg and streptavidin-HRP, luminescence; signal needs both targets bound
# Procedure: (§1) 96-well plates were coated with 0.5 μg/mL antigen, hCEACAM-1 (2244-CM-050, R&D Systems), hCEACAM-5 (4128-CM-050, R&D Systems), hCEACAM-6 (3934-CM-050, R&D Systems) or CEACAM-8 (9639-CM-050, R&D Systems) in PBS over night at 4° C. After washing in PBS/0.05% Tween 20 (PBST), the plates were blocked with PBST, 2% BSA for at least 30 minutes at room temperature before a second round of washing. RUBY bsAbs, diluted in PBST, 0.5% BSA, were then added and allowed to bind for at least 1 hour at room temperature. […] Finally, a final round of washing was performed and bound complexes detected using SuperSignal Pico Luminescent as substrate and luminescence signals were measured using Fluostar Optima.
# [2] = molecular target: T2, CEACAM-8, recombinant (R&D Systems …); assay: ELISA, antigen coated at 0.5 µg/mL, bsAb titrated, anti-human kappa-HRP, luminescence
# Procedure: as §1
# [3] = molecular target: T3, human CEACAM6, recombinant (R&D Systems …); assay: as above
# Procedure: as §1
# [4] = molecular target: T1, human CEACAM5, recombinant (R&D Systems …); assay: as above
# Procedure: as §1
# [5] = molecular target: human CD40 expressed on cells (CD40 reporter cells, HEK Blue CD40L cells, primary B cells, tumour APCs) (human, UniProt P25942 21-277); assay: cell-based or functional assay
# [6] = molecular target: T4, biotinylated human CEACAM5-His (Acro …); assay: Octet BLI, captured CEACAM5-biotin, bsAb in solution, 1:1 fit
# Procedure: Kinetic measurements were performed in the Octet RED96 platform using several different setups. […] Monomeric human CD40-His-Avi tag (Acro Biosystems #CD0-H5228), monomeric Human CEACAM5-His (R&D Systems #4128-CM-050) or monomeric Cynomolgus CEACAM5-His (Sino Biological #90891-C08H) were ½ serially diluted in 1× kinetic buffer (Sartorius) starting at 500 nM or 100 nM. […] Binding kinetics was studied in 1× kinetic buffer where association was allowed for 100 sec, 300 sec or 600 sec followed by dissociation for 100 sec, 300 sec or 3600 sec. Sensor tips were regenerated with 10 mM Glycine pH 1.7. Data generated were referenced by subtracting blank or parallel buffer blank, the baseline was aligned to the y-axis, inter-step correction by alignment against dissociation was performed and the data was smoothed by Savitzky-Golay filter in the data analysis software (v9.0.0.14). The processed data was fitted using a 1:1 Langmuir binding model with R² or X² as a measurement of fitting accuracy.
# Association was measured for 100 sec and dissociation measured for 100 sec.
# [7] = molecular target: T5, human CEACAM5 expressed on cells …; assay: flow cytometry on CHO-CEACAM5 cells, fluorochrome-conjugated anti-human IgG, MFI
# Source text: (§2) The human CEACAM5 and CEACAM1 genes were cloned into pcDNA3.1, and the vector was subsequently stably transfected into CHO cells. […] Binding of the antibodies was detected using fluorochrome-conjugated anti-human IgG and analyzed using flow cytometry.
# [8] = molecular target: T6, human CEACAM1 expressed on CHO cells; assay: flow cytometry on CHO-CEACAM1 cells, fluorochrome-conjugated anti-human IgG, MFI
# Source text: as §2
# Chain of human CD40 expressed on cells (CD40 reporter cells, HEK Blue CD40L cells, primary B cells, tumour APCs) (P25942 21-277): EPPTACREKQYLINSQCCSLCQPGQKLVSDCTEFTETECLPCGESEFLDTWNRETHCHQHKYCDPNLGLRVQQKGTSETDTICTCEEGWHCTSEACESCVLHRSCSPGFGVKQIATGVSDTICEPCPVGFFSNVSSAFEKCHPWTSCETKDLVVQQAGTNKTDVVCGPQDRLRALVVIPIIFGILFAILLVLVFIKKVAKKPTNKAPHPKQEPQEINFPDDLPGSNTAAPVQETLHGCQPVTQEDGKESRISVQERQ
binder,measurement,setting,value
B1,EC50 (read off the curve),[1],~0.6 nM
same,binding result,[2],no binding (tested: 100 nM)
same,binding result,[3],no binding (tested: 100 nM)
same,EC50 (read off the curve),[4],~0.5 nM
same,"EC50 of SEAP release, HEK Blue CD40L reporter cells, bsAb crosslinked to CHO-CEACAM5 cells, 0 Raji sink cells/well",[5],0.03 nM
same,"EC50 of SEAP release, same assay, 10 000 Raji sink cells/well",[5],0.06 nM
same,"EC50 of SEAP release, same assay, 30 000 Raji sink cells/well",[5],0.13 nM
same,"EC50 of SEAP release, same assay, 90 000 Raji sink cells/well",[5],0.36 nM
same,Kd,[6],< 0.001 nM
same,koff,[6],< 1e-07 s⁻¹
same,kon,[6],47000 M⁻¹ s⁻¹
same,EC50 (read off the curve),[7],~3 nM
same,binding result,[8],no binding (tested: about 400 nM)
